Experimental data taken from patent US20250011363A1, “OPTIMIZED SHORTENED PEPTIDE THAT BINDS TO ACETYLCHOLINE RECEPTOR, AND USE THEREOF” (SKINMED CO., LTD., priority 2021, published 2025).

Biological target: acetylcholine receptor
Assay: SPR, AchR immobilised on chip, peptide 10 uM

First: KKRQRR [6mer-1-204]
Second: KRWRLR [6mer-1-205]
The Binding affinity (RU) of the first is higher: 154 RU for the first, 133 RU for the second.

Compared with RRLQTR [6mer-1-206], KKSQQR [6mer-1-207] is higher in Binding affinity (RU): 121 RU for the first, 151 RU for the second.

Compared with KRSIQR [6mer-1-208], RKGYTR [6mer-1-209] is lower in Binding affinity (RU): 122 RU for the first, 121 RU for the second.

First: KKQLLR [6mer-1-211]
Second: RRRICR [6mer-1-212]
The Binding affinity (RU) of the first is lower: 123 RU for the first, 148 RU for the second.

First: KRRVRK [6mer-1-213]
Second: RRSYCK [6mer-1-214]
The Binding affinity (RU) of the first is lower: 127 RU for the first, 139 RU for the second.

First: RKRYSR [6mer-1-215]
Second: RKSIQR [6mer-1-216]
The Binding affinity (RU) of the first is lower: 136 RU for the first, 148 RU for the second.

First: KRVLQR [6mer-1-217]
Second: KKQVTR [6mer-1-218]
The Binding affinity (RU) of the first is higher: 135 RU for the first, 126 RU for the second.

First: RRLFCR [6mer-1-219]
Second: KRQRQK [6mer-1-220]
The Binding affinity (RU) of the first is lower: 121 RU for the first, 148 RU for the second.

Going from KKWFQR [6mer-1-221] to RRRVRR [6mer-1-222], the Binding affinity (RU) falls from 148 RU to 145 RU.

Compared with KKRRRK [6mer-1-223], KRGFLR [6mer-1-224] is higher in Binding affinity (RU): 133 RU for the first, 142 RU for the second.

Going from RKLICK [6mer-1-1225] to RRWITR [6mer-1-226], the Binding affinity (RU) falls from 142 RU to 128 RU.

KRLVQK [6mer-1-227] and KRVIYK [6mer-1-228] are the same in Binding affinity (RU): 139 RU for the first, 139 RU for the second.

Going from RRRLLR [6mer-1-229] to RKGYCK [6mer-1-230], the Binding affinity (RU) falls from 153 RU to 128 RU.

Going from KRQRTK [6mer-1-231] to RRRICK [6mer-1-232], the Binding affinity (RU) rises from 136 RU to 146 RU.

Compared with KKWQSR [6mer-1-233], RRGISR [6mer-1-234] is higher in Binding affinity (RU): 128 RU for the first, 142 RU for the second.

First: KKRYCR [6mer-1-235]
Second: RKLISR [6mer-1-236]
The Binding affinity (RU) of the first is lower: 148 RU for the first, 151 RU for the second.

First: RKSRYK [6mer-1-237]
Second: KKGQQK [6mer-1-238]
The Binding affinity (RU) of the first is lower: 137 RU for the first, 154 RU for the second.

First: RKVLCR [6mer-1-239]
Second: RRSRRR [6mer-1-240]
The Binding affinity (RU) of the first is lower: 136 RU for the first, 148 RU for the second.

RRLYYK [6mer-1-241] and KRQYLK [6mer-1-242] are the same in Binding affinity (RU): 148 RU for the first, 148 RU for the second.

First: KKWYLR [6mer-1-243]
Second: RRRVQK [6mer-1-244]
The Binding affinity (RU) of the first is lower: 136 RU for the first, 144 RU for the second.

Going from RRGFRR [6mer-1-245] to RRLVSR [6mer-1-246], the Binding affinity (RU) falls from 142 RU to 122 RU.

Compared with KKVRQK [6mer-1-247], RRLIYK [6mer-1-248] is higher in Binding affinity (RU): 122 RU for the first, 151 RU for the second.

RKGVSR [6mer-1-249] and RRVICR [6mer-1-250] are the same in Binding affinity (RU): 142 RU for the first, 142 RU for the second.

First: RKVQSK [6mer-1-251]
Second: RRWIRR [6mer-1-252]
The Binding affinity (RU) of the first is higher: 133 RU for the first, 131 RU for the second.

Compared with RRVQLK [6mer-1-253], RKSLSK [6mer-1-254] is lower in Binding affinity (RU): 145 RU for the first, 137 RU for the second.

Compared with KKGFQK [6mer-1-255], KRVRTK [6mer-1-256] is lower in Binding affinity (RU): 139 RU for the first, 125 RU for the second.

First: RKWVTR [6mer-1-257]
Second: KKLQYK [6mer-1-258]
The Binding affinity (RU) of the first is lower: 124 RU for the first, 137 RU for the second.

KRRYRK [6mer-1-259] and RKQRTK [6mer-1-260] are the same in Binding affinity (RU): 141 RU for the first, 141 RU for the second.

First: KRWVTR [6mer-1-261]
Second: RKQLQR [6mer-1-262]
The Binding affinity (RU) of the first is lower: 121 RU for the first, 139 RU for the second.

Compared with RKSYTK [6mer-1-263], RRQYQR [6mer-1-264] is lower in Binding affinity (RU): 146 RU for the first, 128 RU for the second.

First: RKSVCR [6mer-1-265]
Second: KKGRLK [6mer-1-266]
The Binding affinity (RU) of the first is higher: 145 RU for the first, 144 RU for the second.

Compared with KRRLLR [6mer-1-267], KRRQSK [6mer-1-268] is higher in Binding affinity (RU): 139 RU for the first, 144 RU for the second.

Biological target: acetylcholine receptor
Assay: SPR, AchR immobilised on CM5 chip, peptide at 10 uM

Compared with KTWMK [5mer-849], KETDR [5mer-1149] is higher in Binding affinity (RU): 15 RU for the first, 25 RU for the second.

Going from KYDIR [5mer-850] to KFTNR [5mer-1150], the Binding affinity (RU) falls from 13 RU to 12 RU.

First: KMCWK [5mer-851]
Second: KTNAR [5mer-1151]
The Binding affinity (RU) of the first is lower: 19 RU for the first, 26 RU for the second.

Going from KDSMK [5mer-852] to KENFK [5mer-1152], the Binding affinity (RU) falls from 22 RU to 18 RU.

Going from RYHIK [5mer-853] to RDAPR [5mer-1153], the Binding affinity (RU) rises from 13 RU to 27 RU.

Compared with RNTER [5mer-854], KCWVR [5mer-1154] is lower in Binding affinity (RU): 21 RU for the first, 12 RU for the second.

Compared with RFMKK [5mer-855], RYDMK [5mer-1155] is higher in Binding affinity (RU): 18 RU for the first, 25 RU for the second.
